# Source: the DeepSol protein solubility set
# Experiment: soluble on expression in E. coli; label from the status in PepcDB or PDB records
row,Sequence,soluble on expression in E. coli
1,MSLSEPILFVDDEQHVLNALQRVFSESGLETVFTRSPIEALELCRSKKFAVIVSDNMMPEMKGIELLTRIKEESPETVKCLLTAHADLDTALQAINSGEVFRFIVKPWRNEELYQAVSEGVARFREGHHHHHTDPNSSSVDKLAAALEHHHHHH,soluble
2,MSLSEYLGNKEAKQQMLKTIIKDLHQGKDFNQVKADFQNLIKDIDASEIANMEQALIGEGMNPEEITKLCDVHAAVFRDALEENEKPNLILGHPMYTIKHENEEIKKALEELDNYFSSNQMDAFKDRLSFFRDNLDRHYSKKENILFPYLERHNITGPPSVMWSVDDEIRDMGKILLTRVKEGDAGAIKTAYETMKNKISEMIFKEENILTPMLLETLTEEEWAEIKQEDEEFGVVFSKPHGNFWQPKAVTTKNISFEPTGEALSLDTGFLTLEQINTILTNIPIDITFVDKDDTVRYFSQGRERIFVRTKSIIGRKVQNCHPPDSVHMVEKILSDFKHGKHSTAEFWLELAEKFIHIRYFALRDEQGHYVGTMEVSQDVTGIRSLEGERRLLQYEDEGHHHHHH,soluble
3,MSLSFTPLHTTSEAFIEKALPWLEDRYFHIAYLNPNGYTAYPQGAFRHYLAFGSEAAIHVSDATRVFETWNEIKKGYTNEWIFVFASYDGKNSVEQLHTSKEAGIAFAAATFFIPEHVWEIQPDGILIHKGSGSSLVTEIQHAEPSTPVQQSDIFVKQVVSKESYFNAFDELQQIIAQGDAYEINYCIPFTAKGNISPAATYQRLNKKTPMPFSVYYKFNTEYILSASPERFIKKTGDTIISQPIKGTSKRGKSKAEDEMLKQQLGTSEKEQSENTMIVDLVRNDLSRTAVAGSVCVPELSGLYTFPNVHQLISTVQSTIDPACSSIDVIQQAFPMGSMTGAPKVNVMKFIDRIESMARGPFSGTVGYMDPHDNFDFNVLIRSIFYNSATQELFMEAGSAITSYAKAETEYEECLLKITPMIHILNNQEGHHHHHH,soluble
4,MSLSGKIRVDIPPCLANSLIMPRLPTFLHQYPGIALELCSSDRQVDLLREDFDCVVRTEPLHAPGILTRPLGKLRRVNCASPQYLARFGYPENLDDLASHAMVHYSLTPGVSSPGFAFETPHGMQWVKTGGMLTVNSTETWHTACLAGLGIIQTPRIAVREALRAGTLIEILPQYRAAPLPVTLHYPHRRNLSRRVHLFMVWLTETIKEAAEGHHHHHH,not soluble
5,MSLSHSIKPWHEACSKLARTSKPEAFNVDTLFAQLADDTNDTFYTVDPRWITQNAQQFSGCFPGTVLYAMKANPLVHVLEALSQGGINHFDVASLAEVQTVHNTLPNAVQYLMNPVKSRHCLHEAYYRHGVRSFVLDSEEELSKLRDVLPERDSTISMFVRYAPSESTAVYDLRGKFGASPALATQLVHQVAASTDWSLGLSFHVGSQAIEDGPWLAALDDADAIVRDTAQHVRHLDIGGGFPGNYLNSMGNTPDLVGRVCEHIQTSPTLKDLNLICEAGRGLVYGGMSLFARVLSRREHSVFCGAGIFGGLLSAQQWLQFPARVWRDAAPYAGSAEATFNIFGPTCDSMDRLAFPYSLASDIREGDWLEFQSTGAYSVSLRTPFNGFYADRIISLPSEGHHHHHH,soluble
6,MSLSINSREVLAEKVKNAVNNQPVTDMHTHLFSPNFGEILLWDIDELLTYHYLVAEVMRWTDVSIEAFWAMSKREQADLIWEELFIKRSPVSEACRGVLTCLQGLGLDPATRDLQVYREYFAKKTSEEQVDTVLQLANVSDVVMTNDPFDDNERISWLEGKQPDSRFHAALRLDPLLNEYEQTKHRLRDWGYKVNDEWNEGSIQEVKRFLTDWIERMDPVYMAVSLPPTFSFPEESNRGRIIRDCLLPVAEKHNIPFAMMIGVKKRVHPALGDAGDFVGKASMDGVEHLLREYPNNKFLVTMLSRENQHELVVLARKFSNLMIFGCWWFMNNPEIINEMTRMRMEMLGTSFIPQHSDARVLEQLIYKWHHSKSIIAEVLIDKYDDILQAGWEVTEEEIKRDVADLFSRNFWRFVGRNDHVTSVKVEQQTEGHHHHHH,soluble
7,MSLSKAKTLYEKIYDAHVVVAAPGETPILYIDRHLVHEVTSPQAFDGLREKGRPVRQVSKTFATMDHNVSTTTKDINASGEMARIQMQTLSKNCEEFGVTLYDINHKYQGIVHVMGPELGITLPGMTIVCGDSHTATHGAFGSLAFGIGTSEVEHVLATQTLKQGRAKTMKIEVRGKVAPGITAKDIVLAIIGKTTAAGGTGYVVEFCGEAIRDLSMEGRMTVCNMAIELGAKAGLIAPDATTFNYIKGRKFAPQGSDWDAAVDYWQTLKTDEDAQFDAVVTLEASEIKPQVTWGTNPGQVIAVDEPIPSPSQFADPVERSSAEKALAYMGLEAGKMLSDYKVDKVFVGSCTNSRIEDMRAAAAVAKGKKVASHVQALIVPGSEQVKAQAEAEGLDKIFIEAGFEWRLPGCSMCLAMNNDRLGPGERCASTSNRNFEGRQGRDGRTHLVSPAMAAAAAIAGHFVDIRQEGHHHHHH,soluble
